According to article PMC7854685, “Histone Parylation factor 1 contributes to the inhibition of PARP1 by cancer drugs” (Nature Communications, 2021):

What was measured:
[1] = molecular target: T1, Poly-(ADP-ribose) polymerase 1 (PARP1), wild type, labelled with Alexa488, bound to p18mer DNA (UniProt P09874 1-1014, Alexa488 C4 maleimide label (extent of labeling typically 50-100%)); experiment: FRET or BRET; as a3 but with olaparib (1 uM): Alexa647-HPF1 titrated into Alexa488-PARP1 (0.2 uM) premixed with p18mer DNA (0.2 uM) and olaparib; binding buffer; details: both partners purified
T1 construct: Poly-(ADP-ribose) polymerase 1 (PARP1), wild type; In the assay premixed with p18mer double-stranded DNA (0.2 uM); the DNA is no protein chain; also called PARP1 - p18mer complex; 488-labeled PARP1
T1 sequence (P09874 whole entry): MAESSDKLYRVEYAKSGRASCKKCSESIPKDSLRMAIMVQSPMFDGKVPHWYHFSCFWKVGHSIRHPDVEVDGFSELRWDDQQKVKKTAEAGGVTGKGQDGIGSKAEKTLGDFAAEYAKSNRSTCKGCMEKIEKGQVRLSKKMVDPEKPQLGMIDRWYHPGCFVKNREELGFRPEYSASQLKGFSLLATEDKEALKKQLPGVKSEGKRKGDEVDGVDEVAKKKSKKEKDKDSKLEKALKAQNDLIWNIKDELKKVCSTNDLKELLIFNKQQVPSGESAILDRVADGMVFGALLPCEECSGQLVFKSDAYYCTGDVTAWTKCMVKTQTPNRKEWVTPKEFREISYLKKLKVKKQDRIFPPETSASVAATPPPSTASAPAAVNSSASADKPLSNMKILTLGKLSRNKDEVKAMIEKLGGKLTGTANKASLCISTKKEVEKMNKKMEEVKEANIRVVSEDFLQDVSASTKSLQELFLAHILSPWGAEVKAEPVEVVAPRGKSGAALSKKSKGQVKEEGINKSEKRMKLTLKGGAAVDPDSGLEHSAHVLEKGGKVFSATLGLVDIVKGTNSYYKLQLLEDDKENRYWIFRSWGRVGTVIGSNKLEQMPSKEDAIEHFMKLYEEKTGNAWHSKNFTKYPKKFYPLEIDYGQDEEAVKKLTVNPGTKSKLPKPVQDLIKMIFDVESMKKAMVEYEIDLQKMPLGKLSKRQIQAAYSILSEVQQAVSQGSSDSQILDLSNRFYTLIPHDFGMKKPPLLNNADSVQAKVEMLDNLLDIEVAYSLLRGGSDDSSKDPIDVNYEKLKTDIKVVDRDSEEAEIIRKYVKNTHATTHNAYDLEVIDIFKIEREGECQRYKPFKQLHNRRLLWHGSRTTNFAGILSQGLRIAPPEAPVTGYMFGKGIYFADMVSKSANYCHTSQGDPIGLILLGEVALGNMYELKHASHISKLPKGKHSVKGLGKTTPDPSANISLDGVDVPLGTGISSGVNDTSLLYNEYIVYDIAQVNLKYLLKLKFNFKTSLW

[2] = molecular target: T1, Poly-(ADP-ribose) polymerase 1 (PARP1), …; experiment: FRET or BRET; Alexa647-HPF1 (0.6-10,000 nM) titrated into Alexa488-PARP1 (0.2 uM) premixed with p18mer DNA (0.2 uM) and DMSO (control, no olaparib); binding buffer 50 mM Tris-HCl pH 8.0, 50 mM NaCl, 1 mM MgCl2, 0.1 mM EDTA, 0.01% IGEPAL; details: both partners purified

Kd [1]: 1.2 µM
Kd [2]: 3.8 µM
B1: Histone PARylation factor 1 (HPF1), labelled with Alexa647 (natural protein)
chain: LRKEVENHYKLSLPEDFYHFWKFCEELDPEKPSDSLSASLGLQLVGPYDILAGKHKTKKKSTGLNFNLHWRFYYDPPEFQTIIIGDNKTQYHMGYFRDSPDEFPVYVGINEAKKNCIIVPNGDNVFAAVKLFLTKKLREITDKKKINLLKNIDEKLTEAARELGYSLEQRTVKMKQRDKKVVTKTFHGAGLVVPVDKNDVGYRELPETDADLKRICKTIVEAASDEERLKAFAPIQEMMTFVQFANDECDYGMGLELGMDLFCYGSHYFHKVAGQLLPLAYNLLKRNLFAEIIEEHLANRSQENIDQLAA
modifications: Alexa647 C2 maleimide label (extent of labeling typically 50-100%)
notes: Histone PARylation factor 1 (HPF1); also called wild-type protein
